The values that follow come from publication PMC9370829 (Nature, 2022).

B1: UvrA, individually purified (natural protein, E. coli, UniProt P0A698 1-940, looked up)
chain: MDKIEVRGARTHNLKNINLVIPRDKLIVVTGLSGSGKSSLAFDTLYAEGQRRYVESLSAYARQFLSLMEKPDVDHIEGLSPAISIEQKSTSHNPRSTVGTITEIHDYLRLLFARVGEPRCPDHDVPLAAQTVSQMVDNVLSQPEGKRLMLLAPIIKERKGEHTKTLENLASQGYIRARIDGEVCDLSDPPKLELQKKHTIEVVVDRFKVRDDLTQRLAESFETALELSGGTAVVADMDDPKAEELLFSANFACPICGYSMRELEPRLFSFNNPAGACPTCDGLGVQQYFDPDRVIQNPELSLAGGAIRGWDRRNFYYFQMLKSLADHYKFDVEAPWGSLSANVHKVVLYGSGKENIEFKYMNDRGDTSIRRHPFEGVLHNMERRYKETESSAVREELAKFISNRPCASCEGTRLRREARHVYVENTPLPAISDMSIGHAMEFFNNLKLAGQRAKIAEKILKEIGDRLKFLVNVGLNYLTLSRSAETLSGGEAQRIRLASQIGAGLVGVMYVLDEPSIGLHQRDNERLLGTLIHLRDLGNTVIVVEHDEDAIRAADHVIDIGPGAGVHGGEVVAEGPLEAIMAVPESLTGQYMSGKRKIEVPKKRVPANPEKVLKLTGARGNNLKDVTLTLPVGLFTCITGVSGSGKSTLINDTLFPIAQRQLNGATIAEPAPYRDIQGLEHFDKVIDIDQSPIGRTPRSNPATYTGVFTPVRELFAGVPESRARGYTPGRFSFNVRGGRCEACQGDGVIKVEMHFLPDIYVPCDQCKGKRYNRETLEIKYKGKTIHEVLDMTIEEAREFFDAVPALARKLQTLMDVGLTYIRLGQSATTLSGGEAQRVKLARELSKRGTGQTLYILDEPTTGLHFADIQQLLDVLHKLRDQGNTIVVIEHNLDVIKTADWIVDLGPEGGSGGGEILVSGTPETVAECEASHTARFLKPML

Data set [1] concerns the molecule itself. The data set is described as follows: cross-linking.
The target in data set [2] is B1. The data set is described as follows: cross-linking.

For B1, in data set [1], the binding result was “binds”.

B2: UvrB, individually purified (natural protein, E. coli, UniProt P0A8F8 1-673, looked up)
chain: MSKPFKLNSAFKPSGDQPEAIRRLEEGLEDGLAHQTLLGVTGSGKTFTIANVIADLQRPTMVLAPNKTLAAQLYGEMKEFFPENAVEYFVSYYDYYQPEAYVPSSDTFIEKDASVNEHIEQMRLSATKAMLERRDVVVVASVSAIYGLGDPDLYLKMMLHLTVGMIIDQRAILRRLAELQYARNDQAFQRGTFRVRGEVIDIFPAESDDIALRVELFDEEVERLSLFDPLTGQIVSTIPRFTIYPKTHYVTPRERIVQAMEEIKEELAARRKVLLENNKLLEEQRLTQRTQFDLEMMNELGYCSGIENYSRFLSGRGPGEPPPTLFDYLPADGLLVVDESHVTIPQIGGMYRGDRARKETLVEYGFRLPSALDNRPLKFEEFEALAPQTIYVSATPGNYELEKSGGDVVDQVVRPTGLLDPIIEVRPVATQVDDLLSEIRQRAAINERVLVTTLTKRMAEDLTEYLEEHGERVRYLHSDIDTVERMEIIRDLRLGEFDVLVGINLLREGLDMPEVSLVAILDADKEGFLRSERSLIQTIGRAARNVNGKAILYGDKITPSMAKAIGETERRREKQQKYNEEHGITPQGLNKKVVDILALGQNIAKTKAKGRGKSRPIVEPDNVPMDMSPKALQQKIHELEGLMMQHAQNLEFEEAAQIRDQLHQLRELFIAAS
For the molecule B2, the binding result in data set [2] is recorded as “binds”.
